Binding result and EC50 data for 14 molecules are collected here from patent publication EP4671280A1 (Nanjing Leads Biolabs Co., Ltd., dated 2025).

Experiment [1] deals with T1, human Nectin-4 expressed on HT-1376 tumor cells (human, UniProt Q96NY8 32-510).
T1 construct: whole, on cells; also called HT-1376 cells expressing human Nectin-4
T1 sequence (looked up): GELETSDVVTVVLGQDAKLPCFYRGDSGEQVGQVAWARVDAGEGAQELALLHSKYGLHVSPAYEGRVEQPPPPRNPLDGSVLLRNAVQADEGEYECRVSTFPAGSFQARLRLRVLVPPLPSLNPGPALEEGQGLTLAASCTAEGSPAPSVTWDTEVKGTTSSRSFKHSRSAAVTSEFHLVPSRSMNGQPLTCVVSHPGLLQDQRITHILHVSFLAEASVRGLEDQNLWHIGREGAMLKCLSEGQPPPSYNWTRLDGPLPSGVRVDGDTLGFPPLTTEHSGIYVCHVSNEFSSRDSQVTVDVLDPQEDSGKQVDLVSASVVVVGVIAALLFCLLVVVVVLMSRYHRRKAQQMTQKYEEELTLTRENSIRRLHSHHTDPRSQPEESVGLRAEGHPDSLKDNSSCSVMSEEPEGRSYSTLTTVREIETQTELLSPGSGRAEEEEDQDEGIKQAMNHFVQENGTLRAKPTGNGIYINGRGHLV
The experiment can be described thus: flow cytometry on HT-1376 cells. In general terms: A flow cytometer gives signals particle by particle.

Experiment [2] addresses T2, cynomolgus monkey Nectin-4 expressed on CHO-K1 cells (cynomolgus monkey, UniProt Q96NY8 32-370 (human entry), limits assumed).
T2 construct: also called CHO-K1/cynoNectin4; cells expressing the cynomolgus monkey Nectin-4 protein
T2 chain: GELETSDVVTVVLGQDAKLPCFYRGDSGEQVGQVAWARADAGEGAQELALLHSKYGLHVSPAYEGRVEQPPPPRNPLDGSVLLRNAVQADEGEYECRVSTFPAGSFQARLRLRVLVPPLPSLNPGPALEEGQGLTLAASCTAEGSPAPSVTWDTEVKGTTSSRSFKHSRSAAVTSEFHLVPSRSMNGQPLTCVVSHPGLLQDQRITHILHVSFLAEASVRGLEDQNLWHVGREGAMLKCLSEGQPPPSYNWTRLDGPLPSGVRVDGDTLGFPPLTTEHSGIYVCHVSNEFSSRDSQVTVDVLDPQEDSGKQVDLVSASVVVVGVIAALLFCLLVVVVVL
The experiment can be described thus: flow cytometry on CHO-K1/cynoNectin4 cells.

Experiment [3] has as its target T3, human Nectin-2 protein (Sino Biological, Cat. No. 10005-H08H) (human, UniProt Q92692 32-360).
T3 sequence (looked up): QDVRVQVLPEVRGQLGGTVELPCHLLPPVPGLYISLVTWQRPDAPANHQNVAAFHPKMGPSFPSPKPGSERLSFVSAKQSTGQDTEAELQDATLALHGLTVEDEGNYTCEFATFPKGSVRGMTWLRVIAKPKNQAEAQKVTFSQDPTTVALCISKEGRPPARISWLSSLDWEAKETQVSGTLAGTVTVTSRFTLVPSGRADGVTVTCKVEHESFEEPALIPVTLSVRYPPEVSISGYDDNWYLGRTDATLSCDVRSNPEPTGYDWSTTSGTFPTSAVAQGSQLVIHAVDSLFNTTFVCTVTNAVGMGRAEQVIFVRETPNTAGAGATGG
Put plainly: ELISA, Nectin family protein immobilised on plate. For orientation: In an ELISA, binding on a coated surface is turned into a signal by an enzyme label.

Experiment [4] deals with human Nectin-3 protein (Sino Biological, Cat. No. 10852-H08H) (human, UniProt Q9NQS3 58-404). Put plainly: ELISA, Nectin family protein immobilised on plate.
Sequence of human Nectin-3 protein (Sino Biological, Cat. No. 10852-H08H) (Q9NQS3 58-404 limits assumed): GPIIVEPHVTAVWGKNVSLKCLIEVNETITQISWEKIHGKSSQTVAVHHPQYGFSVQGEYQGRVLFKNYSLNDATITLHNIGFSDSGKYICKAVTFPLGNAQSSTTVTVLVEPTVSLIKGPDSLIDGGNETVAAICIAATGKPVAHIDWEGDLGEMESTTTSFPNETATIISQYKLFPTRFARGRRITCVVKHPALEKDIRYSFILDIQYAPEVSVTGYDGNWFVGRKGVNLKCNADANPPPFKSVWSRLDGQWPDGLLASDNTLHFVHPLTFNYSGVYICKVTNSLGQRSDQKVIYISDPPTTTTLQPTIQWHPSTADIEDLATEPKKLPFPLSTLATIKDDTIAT

B1: Enfortumab (antibody, human IgG1, kappa, V domains shown)
VH: EVQLVESGGGLVQPGGSLRLSCAASGFTFSSYNMNWVRQAPGKGLEWVSYISSSSSTIYYADSVKGRFTISRDNAKNSLSLQMNSLRDEDTAVYYCARAYYYGMDVWGQGTTVTVSS
VL: DIQMTQSPSSVSASVGDRVTITCRASQGISGWLAWYQQKPGKAPKFLIYAASTLQSGVPSRFSGSGSGTDFTLTISSLQPEDFATYYCQQANSFPPTFGGGTKVEIKR
notes: used as control antibody (naked antibody, no drug); also called control antibody enfortumab
For the molecule B1, the binding result in experiment [1] and in experiment [2] was “binds” throughout.

B2: Antibody 23-H4F3 (murine chimeric anti-Nectin-4 antibody) (antibody, human IgG1, kappa, V domains shown)
VH: QVQLQQSGPELVKPGASVRISCKASGYTFTSYYIHWVKQRPGQGLEWIGWIYPGNVNTKYNEKFKGKATLTADKSSSTAYMQLISLTSEDSAVYFCARGVYYFDFWGQGTTLTVSS
VL: SIVMTQTPKFLLVSAGDRVTLTCKASQSVSNDVAWFQQKPGQSPKLLIYYALNRYTGVPDRFTGSGYGTDFTFTISTVQAEDLAVYFCQQDYSSPYTFGGGTKLEIKR
notes: Mouse variable regions on human IgG1 / human kappa constant regions, expressed in ExpiCHO-S cells; also called chimeric antibody 23-H4F3
For orientation: EC50 means the concentration giving half of the maximal effect. As for B2, the EC50 in experiment [1] turned out to be 64 pM; in experiment [2] it was 411 pM. The binding result in experiment [3] and in experiment [4] was “no binding” throughout.

B3: Antibody 6-B9B6 (murine chimeric anti-Nectin-4 antibody) (antibody, human IgG1, kappa, V domains shown)
VH: EVHLVESGGGLVQPGGSLKLSCAASGFTFSSYGMSWVRQTPDKRLELVATINNIGGSTFPPDSVKGRFTVSRDNAKNTLYLQMSSLKSEDTAMYYCARAYDYVPFAYWGQGTLVTVSA
VL: DIQMTQSSSYLSVSLGGRVTITCKASDHINNWLAWYQQKPGNAPRLLISGATSLETGVPSRFSGSGSGKDYALSIASLQTEDVATYYCQQYWSTPFTFGSGTKLEIKR
notes: Mouse variable regions on human IgG1 / human kappa constant regions
Consider B3, for which the EC50 in experiment [1] worked out at 249 pM; in experiment [2] it was 719 pM. The binding result in experiment [3] and in experiment [4] was “no binding” throughout.

B4: huH4F3-2 (antibody, human IgG1, kappa, V domains shown)
VH: QVQLVQSGAEVKKPGASVKVSCKASGYTFTSYYIHWVRQAPGQRLEWMGWIYPGNVNTKYSQKFQGRVTLTRDKSASTAYMELSSLRSEDTAVYYCARGVYYFDFWGQGTLVTVSS
VL: AIQMTQSPSSLSASVGDRVTITCRASQSVSNDVGWYQQKPGKAPKLLIYYALNRYTGVPSRFSGSGSGTDFTLTISSLQPEDFATYYCQQDYSSPYTFGQGTKLEIKR
notes: Humanized 23-H4F3, human IgG1/kappa
As to B4, the binding result in experiment [1] and in experiment [2] was “binds” each time.

B5: huH4F3-4 (antibody, human IgG1, kappa, V domains shown)
VH: QVQLVQSGAEVKKPGASVKVSCKASGYTFTSYYIHWVRQAPGQRLEWMGWIYPGNVNTKYSQKFQGRVTLTRDKSASTAYMELSSLRSEDTAVYYCARGVYYFDFWGQGTLVTVSS
VL: DIVMTQSPDSLAVSLGERATINCKASQSVSNDVAWYQQKPGQPPKLLIYYALNRESGVPDRFSGSGSGTDFTLTISSLQAEDVAVYYCQQDYSSPYTFGQGTKLEIKR
notes: as for B4
Consider B5, for which the binding result in experiment [1] and in experiment [2] was “binds” in each case.

B6: huH4F3-8 (antibody, human IgG1, kappa, V domains shown)
VH: QVQLVQSGAEVKKPGASVKVSCKASGYTFTSYYIHWVRQAPGQRLEWMGWIYPGNVNTKYSQKFQGRVTLTRDKSASTAYMELSSLRSEDTAVYFCARGVYYFDFWGQGTLVTVSS
VL: AIQMTQSPSSLSASVGDRVTITCRASQSVSNDVGWFQQKPGKAPKLLIYYALNRYTGVPSRFSGSGSGTDFTFTISSLQPEDFATYYCQQDYSSPYTFGQGTKLEIKR
notes: as for B4
With B6, the binding result in experiment [1] and in experiment [2] was “binds” throughout.

B7: huH4F3-10 (antibody, human IgG1, kappa, V domains shown)
VH: QVQLVQSGAEVKKPGASVKVSCKASGYTFTSYYIHWVRQAPGQRLEWMGWIYPGNVNTKYSQKFQGRVTLTRDKSASTAYMELSSLRSEDTAVYFCARGVYYFDFWGQGTLVTVSS
VL: DIVMTQSPDSLAVSLGERATINCKSSQSVSNDVAWYQQKPGQPPKLLIYYALNRESGVPDRFSGSGSGTDFTLTISSLQAEDVAVYYCQQDYSSPYTFGQGTKLEIKR
notes: as for B4
With B7, the binding result in experiment [1] and in experiment [2] was “binds” in each case.

B8: huH4F3-1 (antibody, human IgG1, kappa, V domains shown)
VH: QVQLVQSGAEVKKPGASVKVSCKASGYTFTSYYIHWVRQAPGQRLEWMGWIYPGNVNTKYSQKFQGRVTLTRDKSASTAYMELSSLRSEDTAVYYCARGVYYFDFWGQGTLVTVSS
VL: AIQMTQSPSSLSASVGDRVTITCRASQSVSNDVGWYQQKPGKAPKLLIYYALNLQSGVPSRFSGSGSGTDFTLTISSLQPEDFATYYCQQDYSSPYTFGQGTKLEIKR
notes: as for B4
With B8, the binding result in experiment [1] and in experiment [2] was “binds” in each case.

B9: huH4F3-7 (antibody, human IgG1, kappa, V domains shown)
VH: QVQLVQSGAEVKKPGASVKVSCKASGYTFTSYYIHWVRQAPGQRLEWMGWIYPGNVNTKYSQKFQGRVTLTRDKSASTAYMELSSLRSEDTAVYFCARGVYYFDFWGQGTLVTVSS
VL: AIQMTQSPSSLSASVGDRVTITCRASQSVSNDVGWYQQKPGKAPKLLIYYALNRYTGVPSRFSGSGSGTDFTLTISSLQPEDFATYYCQQDYSSPYTFGQGTKLEIKR
notes: as for B4
For the molecule B9, the binding result in experiment [1] and in experiment [2] was “binds” in each case.

B10: huH4F3-6 (antibody, human IgG1, kappa, V domains shown)
VH: QVQLVQSGAEVKKPGASVKVSCKASGYTFTSYYIHWVRQAPGQRLEWMGWIYPGNVNTKYSQKFQGRVTLTRDKSASTAYMELSSLRSEDTAVYFCARGVYYFDFWGQGTLVTVSS
VL: AIQMTQSPSSLSASVGDRVTITCRASQSVSNDVGWYQQKPGKAPKLLIYYALNLQSGVPSRFSGSGSGTDFTLTISSLQPEDFATYYCQQDYSSPYTFGQGTKLEIKR
notes: as for B4
Turning to B10, the binding result in experiment [1] and in experiment [2] was “binds” in each case.

B11: huH4F3-9 (antibody, human IgG1, kappa, V domains shown)
VH: QVQLVQSGAEVKKPGASVKVSCKASGYTFTSYYIHWVRQAPGQRLEWMGWIYPGNVNTKYSQKFQGRVTLTRDKSASTAYMELSSLRSEDTAVYFCARGVYYFDFWGQGTLVTVSS
VL: DIVMTQSPDSLAVSLGERATINCKASQSVSNDVAWYQQKPGQPPKLLIYYALNRESGVPDRFSGSGSGTDFTLTISSLQAEDVAVYYCQQDYSSPYTFGQGTKLEIKR
notes: as for B4
Take B11: the binding result in experiment [1] and in experiment [2] was “binds” in each case.

B12: huH4F3-3 (antibody, human IgG1, kappa, V domains shown)
VH: QVQLVQSGAEVKKPGASVKVSCKASGYTFTSYYIHWVRQAPGQRLEWMGWIYPGNVNTKYSQKFQGRVTLTRDKSASTAYMELSSLRSEDTAVYYCARGVYYFDFWGQGTLVTVSS
VL: AIQMTQSPSSLSASVGDRVTITCRASQSVSNDVGWFQQKPGKAPKLLIYYALNRYTGVPSRFSGSGSGTDFTFTISSLQPEDFATYYCQQDYSSPYTFGQGTKLEIKR
notes: as for B4
B12: the binding result in experiment [1] and in experiment [2] was “binds” in each case.

B13: huH4F3-5 (antibody, human IgG1, kappa, V domains shown)
VH: QVQLVQSGAEVKKPGASVKVSCKASGYTFTSYYIHWVRQAPGQRLEWMGWIYPGNVNTKYSQKFQGRVTLTRDKSASTAYMELSSLRSEDTAVYYCARGVYYFDFWGQGTLVTVSS
VL: DIVMTQSPDSLAVSLGERATINCKSSQSVSNDVAWYQQKPGQPPKLLIYYALNRESGVPDRFSGSGSGTDFTLTISSLQAEDVAVYYCQQDYSSPYTFGQGTKLEIKR
notes: as for B4
Turning to B13, the binding result in experiment [1] and in experiment [2] was “binds” each time.

B14: Antibody 32-A12C7 (murine chimeric anti-Nectin-4 antibody) (antibody, human IgG1, kappa, V domains shown)
VH: QVQLQQPGAELVMPGASVKMSCKASGYTFTDYWMHWVKQRPGQGLEWIGAIDTSDSYTSYNQKFKGKATLTVDESSSTAYMQLSSLTSEDSAVYYCARWGSTMITWGYGMDNWGQGTSVTVSS
VL: DIQMTQTTSSLSASLGDRVTISCRASQDINNYLNWYQQKPDGTVKLLIYYTSRLHSGVPSRFSGSGSGTDYSLTISNLEQEDIATYFCQQGNTLPWTFGGGTKLEIKR
notes: as for B3
Take B14: the values for the EC50 in experiment [1] and in experiment [2] were 300 pM and 1050 pM, respectively.
